Article PMC5961942

Biological target: trimeric PD-L1 trap (mouse) (UniProt Q02242)
Assay: SDS-PAGE without reducing agent

stoichiometry N: 3
Substance: trimeric PD-L1 trap (from UniProt Q02242 21-150; P51942 458-500) (designed binder)
